Laboratory results reported in paper doi:10.1101/2024.05.02.592161.

Target: Mx_pmut, pore-engineered Myxococcus xanthus encapsulin shell protein (Myxococcus xanthus) (UniProt Q1D6H4)
Experiment: cryo-EM structure; purified Mx_pmut co-expressed with SNAP-tag-TP cargo (T=3/T=4 sample), 4.1 mg/mL, 150 mM NaCl, 25 mM Tris pH 8.0; icosahedral symmetry imposed

copies of cargo in a T=3 shell: 180 copies
copies of cargo in a T=4 shell: 240 copies
Substance: SNAP-tag carrying an Mx-targeting peptide (TP) at its C-terminus
